Measured values from patent US10081667B2, “Composition and method for therapeutic agent delivery during pregnancy” (University of Mississippi Medical Center, priority 2013, dated 2018).

Legend:
[1] = rat, in vivo
NF-κB = assay: In vitro NF-κB activation assay: nuclear localization of NF-κB in TNFα-stimulated HUVECs; format: cell-based, human; conditions: 20 μM pretreatment 24 h, TNFα 1 h
Method: FIG. 14 includes images and a bar graph illustrating inhibition of NF-κB activation with an ELP-delivered p50 peptide. FIG. 14A. Localization of NF-κB in HUVEC cells before and after TNFα stimulation. HUVECs were treated with SynB1-ELP control or SynB1-ELP-p50 (20 μM) for 24 h. Cells were then stimulated for 1 h with TNFα, and NF-κB localization was determined by immunostaining for the p65 subunit (green) and for nuclei with DAPI (blue). FIG. 14B. The nuclear cytoplasmic ratio of NF-κB staining was determined under each treatment condition. Data represent the mean of 30-60 cells per treatment and are averaged over three experiments.
This investigation has developed an ELP-fused peptide inhibitor of activated NF-κB. NF-κB activation upon extracellular signaling is mediated by phosphorylation and release of the natural inhibitor I-κB from the NF-κB p50/p65 heterodimer. I-κB release exposes a nuclear localization sequence (NLS) on the p50 subunit of NF-κB, and once exposed, this NLS mediates nuclear import of NF-κB. Once inside the nucleus, NF-κB binds to response elements on its target genes and regulates gene expression. […] Stimulation of cultured HUVECs with TNF-α leads to rapid activation of the NF-κB pathway, and this can be detected by monitoring nuclear localization of NF-κB (FIG. 14A, left panel).

endothelin-1 = assay: Endothelin-1 release by HUVECs, ELISA; format: cell-based, human
Method: FIG. 15 includes a graph illustrating the inhibition of endothelin release by SynB1-ELP-p50. HUVECs growing in 24-well plates were treated with 50 μM SynB1-ELP or SynB1-ELP-p50 overnight, then 50 or 100 ng/mL […]. Cells were incubated overnight, and culture media was collected and frozen.
TNFα stimulation also leads to the secretion of the vasoactive peptide endothelin-1 by HUVECs. This endothelin release contributes to the hypertension associated with the pro-inflammatory environment in preeclampsia.

[2] = ELP-VEGF pharmacokinetics and biodistribution in mice after bolus IV; format: in vivo, C57/B16 mice
Method: FIG. 12 includes graphs showing ELP-VEGF pharmacokinetics and biodistribution. FIG. 12A. Fluorescently labeled free VEGF or ELP-VEGF were administered by IV injection to C57/B16 mice. Plasma levels were determined by direct fluorescence quantitation and fit to a two-compartment pharmacokinetic model. FIG. 12B. […] FIG. 12D.
In addition to examining the ELP-VEGF activity in vitro, the pharmacokinetics (PK) and biodistribution of ELP-VEGF in comparison to free VEGF121 is also determined. Both free VEGF121 and ELP-VEGF were fluorescently labeled, and their PK and biodistribution were determined in mice after bolus intravenous administration. […] This is consistent with other reports of approximately a 30 minute half-life for recombinant VEGF in humans. ELP-VEGF cleared more slowly than free VEGF121 (FIG. 12A). […] Four hours after the infusion, the biodistribution was determined by ex vivo whole organ fluorescence imaging.

[3] = system: rat model of preeclampsia; assay: Blood pressure in the reduced uterine perfusion (RUPP) rat model of preeclampsia; format: in vivo, rats; conditions: 1 mg/kg/day IP minipump GD14 to GD19, measured GD19
Method: FIG. 13 is a bar graph showing effect of ELP-VEGF on blood pressure in the reduced uterine perfusion model. A study was conducted in pregnant rats subjected to surgical reduction of uterine blood flow (RUPP) on gestational day 14 (GD14). ELP-VEGF or saline control was administered by continuous infusion via IP minipump from GD14 to GD19 at a dose of 1 mg/kg/day. Data represent the mean arterial pressure as assessed by indwelling carotid catheters on GD19. Individual animal data are indicated by the points.
Whether ELP-VEGF was effective for lowering blood pressure in a rat model of preeclampsia is texted next. Pregnant rats at gestational day 14 (GD14) were subjected to surgery to reduce ale blood flow to the placentas. It has previously been shown that this model, achieved by partially restricting the ovarian arteries and the dorsal aorta, results in a preeclampsia-like syndrome in the rat. The effects mirror human preeclampsia in that the rats develop hypertension, proteinuria, reduced renal function, fetal growth restriction, and some fetal loss. […] The hypertension associated with this model can be seen in FIG. 13, where the mean arterial pressure increased from about 105 mmHg in normal pregnant rats on GD19 to over 120 mmHg in the preeclampsia model as measured by a pressure transducer inserted into a carotid arterial catheter.

[4] = system: human umbilical vein endothelial cells (HUVECs); assay: HUVEC proliferation, MTS cell proliferation assay; format: cell-based; conditions: 72 h exposure
Method: FIG. 9 is a bar graph showing ELP-VEGF stimulation of HUVEC proliferation. HUVEC cell proliferation was determined after 72 h exposure to ELP, VEGF, or ELP-VEGF at the indicated concentrations using the MTS cell proliferation assay.
Proliferation of human umbilical vein endothelial cells (HUVECs) is stimulated when the cell are exposed to VEGF.

B1: SynB1-ELP-p50: SynB1 peptide fused to N-terminus of ELP (SEQ ID NO: 4), p50 peptide at the C-terminus; SEQ ID NO: 15 (protein)
chain: MRGGRLSYSRRRFSTSTGRGCGPGVGVPGAGVPGGGVPGAGVPGGGVPGAGVPGGGVPGAGVPGGGVPGAGVPGGGVPGAGVPGGGVPGAGVPGGGVPGAGVPGVGVPGAGVPGGGVPGAGVPGGGVPGAGVPGGGVPGAGVPGGGVPGAGVPGGGVPGAGVPGGGVPGAGVPGGGVPGAGVPGVGVPGAGVPGGGVPGAGVPGGGVPGAGVPGGGVPGAGVPGGGVPGAGVPGGGVPGAGVPGGGVPGAGVPGGGVPGAGVPGVGVPGAGVPGGGVPGAGVPGGGVPGAGVPGGGVPGAGVPGGGVPGAGVPGGGVPGAGVPGGGVPGAGVPGGGVPGAGVPGVGVPGAGVPGGGVPGAGVPGGGVPGAGVPGGGVPGAGVPGGGVPGAGVPGGGVPGAGVPGGGVPGAGVPGGGVPGAGVPGVGVPGAGVPGGGVPGAGVPGGGVPGAGVPGGGVPGAGVPGGGVPGAGVPGGGVPGAGVPGGGVPGAGVPGGGVPGAGVPGVGVPGAGVPGGGVPGAGVPGGGVPGAGVPGGGVPGAGVPGGGVPGAGVPGGGVPGAGVPGGGVPGAGVPGGGVPGAGVPGVGVPGAGVPGGGVPGAGVPGGGVPGAGVPGGGVPGAGVPGGGVPGAGVPGGGVPGAGVPGGGVPGAGVPGGGVPGAGVPGVGVPGAGVPGGGVPGAGVPGGGVPGAGVPGGGVPGAGVPGGGVPGAGVPGGGVPGAGVPGGGVPGAGVPGGGVPGAGVPGVGVPGAGVPGGGVPGAGVPGGGVPGAGVPGGGVPGAGVPGGGVPGAGVPGGGVPGAGVPGGGVPGAGVPGGGVPGAGVPGWPGSGGVQRKRQKLMP
modifications: synthetic SynB1-ELP-p50 sequence
- entry into fetal circulation / pups [1]: effectively prevents the peptide from entering the fetal circulation
- terminal half-life (in words) [1]: greater than two hours
- nuclear translocation of NF-κB after TNF-α stimulation (NF-κB): completely blocks this nuclear translocation of NF-κB
- endothelin release from unstimulated HUVECs (endothelin-1; 50 μM): decreases the endothelin release from unstimulated HUVECs
- endothelin release from TNFα-stimulated HUVECs (endothelin-1; 50 μM pre-treatment overnight): the endothelin release is completely blocked

B2: ELP-VEGF: ELP sequence (SEQ ID NO: 4) fused to a C-terminal VEGF121 sequence, SEQ ID NO: 14; 73 kDa protein (protein)
chain: MSKGPGVGVPGAGVPGGGVPGAGVPGGGVPGAGVPGGGVPGAGVPGGGVPGAGVPGGGVPGAGVPGGGVPGAGVPGGGVPGAGVPGVGVPGAGVPGGGVPGAGVPGGGVPGAGVPGGGVPGAGVPGGGVPGAGVPGGGVPGAGVPGGGVPGAGVPGGGVPGAGVPGVGVPGAGVPGGGVPGAGVPGGGVPGAGVPGGGVPGAGVPGGGVPGAGVPGGGVPGAGVPGGGVPGAGVPGGGVPGAGVPGVGVPGAGVPGGGVPGAGVPGGGVPGAGVPGGGVPGAGVPGGGVPGAGVPGGGVPGAGVPGGGVPGAGVPGGGVPGAGVPGVGVPGAGVPGGGVPGAGVPGGGVPGAGVPGGGVPGAGVPGGGVPGAGVPGGGVPGAGVPGGGVPGAGVPGGGVPGAGVPGVGVPGAGVPGGGVPGAGVPGGGVPGAGVPGGGVPGAGVPGGGVPGAGVPGGGVPGAGVPGGGVPGAGVPGGGVPGAGVPGVGVPGAGVPGGGVPGAGVPGGGVPGAGVPGGGVPGAGVPGGGVPGAGVPGGGVPGAGVPGGGVPGAGVPGGGVPGAGVPGVGVPGAGVPGGGVPGAGVPGGGVPGAGVPGGGVPGAGVPGGGVPGAGVPGGGVPGAGVPGGGVPGAGVPGGGVPGAGVPGVGVPGAGVPGGGVPGAGVPGGGVPGAGVPGGGVPGAGVPGGGVPGAGVPGGGVPGAGVPGGGVPGAGVPGGGVPGAGVPGVGVPGAGVPGGGVPGAGVPGGGVPGAGVPGGGVPGAGVPGGGVPGAGVPGGGVPGAGVPGGGVPGAGVPGGGVPGAGVPGWPGSGAPMAEGGGQNHHEVVKFMDVYQRSYCHPIETLVDIFQEYPDEIEYIFKPSCVPLMRCGGCCNDEGLECVPTEESNITMQIMRIKPHQGQHIGEMSFLQHNKCECRPKKDRARQEKCDKPRR
modifications: synthetic ELP-VEGF sequences
notes: 73 kDa protein
- fluorescence in the urine at the end of the experiment [2]: less fluorescence detectable in the urine
- plasma clearance rate relative to free VEGF121 ([2]; IV): about half the rate of free VEGF121
- kidney deposition relative to free VEGF121 ([2]; four hours after the infusion): significantly lower than for free VEGF121
- organ accumulation, ex vivo whole organ fluorescence imaging ([2]; four hours after the infusion): accumulated more highly in the spleen and liver than did free VEGF121
- mean arterial pressure [3]: effectively lowered the blood pressure of the preeclampsia-induced rats to near normal levels
- stimulation of HUVEC proliferation [4]: stimulated HUVEC proliferation with equal potency
